Reference: the DeepSol protein solubility set

Test: soluble on expression in E. coli; label from the status in PepcDB or PDB records

Row | Sequence | soluble on expression in E. coli
1 | MSQPIQFESNIALINYPKQAAFGRTLPKNKIYEHSGANTRLKDLFIEQVELIVWRYKLAPETINLPARPGVPELQIFSIQLKTSELNLDVLHCIDGAVQFPIIFELSFDGRTKVIAAYKRPNESDASRWVLSSYFATAWLPSDSERAAIPLALDLGGLYEQVLHRLIPMPARPQESLADLVARVEMVAAKQREVEKAASRLAKEKQFNRKVEINAQLRQLKNELEELTGRENA | not soluble
2 | MSQPLNVAVVGATGSVGEALVGLLDERDFPLHRLHLLASAESAGQRMGFAESSLRVGDVDSFDFSSVGLAFFAAAAEVSRAHAERARAAGCSVIDLSGALEPSVAPPVMVSVNAERLASQAAPFLLSSPCAVAAELCEVLAPLLATLDCRQLNLTACLSVSSLGREGVKELARQTAELLNARPLEPRLFDRQIAFNLLAQVGAVDAEGHSAIERRIFAEVQALLGERIGPLNVTCIQAPVFFGDSLSVTLQCAEPVDLAAVTRVLDATKGIEWVGEGDYPTVVGDALGQDETYVGRVRAGQADPCQVNLWIVSDNVRKGAALNAVLLGELLIKHYL | soluble
3 | MSRDARWKALLELLVERGRLDVEEAATELEVSAATIRRDFDRLAEQQMLVRTRGGAVVHGVSYELPLRYKTARRASEKQRVAQAVAALVAPGEAVGLTGGTTTTEVARALAVRADLASGTPALTVVTNALNIANELAVRPQFKIVVTGGVARAQSYELIGPLADGVLGQVTLDVAVLGVVAFDVAHGAAAHDEAEAAINRLLCERAERVVVAADSSKLGRRAFARICATESVDTLVTDGAADPELVGRFEEAGVRVVTALEHHHHHH | not soluble
4 | MSREQAILVGCQLAGVDDERFRYSMEELVSLVATANGEVVAEVTQKREAPHPATYIGKGKTEELAAIVKQLEPDVVIFNSELSPSQARNLTKMLGEVKVIDRT | not soluble
5 | MSRLLALLALAPLLAGAAETTAPKPPSAFTVEAQRRVEAELPFADRADFERADRGLIRRPERLLIRNPDGSVAWQLGGYDFLLDGKPRDSINPSLQRQALLNLKYGLFEVAEGIYQVRGFDLANITFIRGDSGWIVVDTLTTPATARAAYELVSRELGERPIRTVIYSHAHADHFGGVRGLVEPQQVASGAVQIIAPAGFMEAAIKENVLAGNAMMRRATYQYGTQLPKGPQGQVDMAIGKGLARGPLSLLAPTRLIEGEGEDLVLDGVPFTFQNTPGTESPAEMNIWLPRQKALLMAENVVGTLHNLYTLRGAEVRDALGWSKYINQALHRFGRQAEVMFAVHNWPRWGNAEIVEVLEKQRDLYGYLHDQTLHLANQGVTIGQVHNRLRLPPSLDQEWYDRGYHGSVSHNARAVLNRYLGYYDGNPATLDPLSPEDSAGRYVEYMGGAERLLEQARASYARGEYRWVVEVVNRLVFAEPDNRAARELQADALEQLGYQAENAGWRNSYLSAAYELRHGVPRDQPTMKAGSADALAAMDTGLLFDYLGVRLDAGAAEGKALSINLRLPDIGENYLLELKNSHLNNLRGVQSEDAGQTVSIDRADLNRLLLKEVSAVRLVFEGKLKSSGNPLLLGQLFGMLGDFDFWFDIVTPAAKSEG | soluble
6 | MSRNNEELQGISLLGNQKTQYPTGYAPEILEAFDNKHPDNDYFVKFVCPEFTSLCPMTGQPDFATIYIRYIPHIKMVESKSLKLYLFSFRNHGDFHEDCVNIIMKDLIALMDPKYIEVFGEFTPRGGIAIHPFANYGKAGTEFETLARKRLFEHDAQ | not soluble
7 | MSRRNATSFVDNNTLTSSEGLTSGVFSWALERLPTCLREELQLPLTDTGSCWQTN | not soluble
8 | MSSALISSEQALNDYFTALLDEETAEFESTLKPEPVWEMAPAIQSVPNKSYFDAEIEELELPNLEDVQRLLSQLESSNPVADLDLEQILEENTAKIAKIDPVVQPCSVVEEIQEWEIETSYVEPDIETPESVIEDDLEPESVDTEAEREIAIETSIEEPVAEVPVVEAQAVPETQAGRNKLGTWTNTIREKDFQVLYFDVNGVTFAVPLDELGGIHRMTTLNHLIGRPAWYLGLQTNRDSQLDVVDTAKWVMAEKLRDESYKQAYQYIVMLGESAWGLASTQLMGTELLSTEKVRWREQVGKRPWLAGMVKEKMCALIHVQALIAMLNAGLDVKALEN | not soluble
9 | MSSAQFDHVTVIKKSNVYFGGLCISHTVQFEDGTKKTLGVILPTEQPLTFETHVPERMEIISGECRVKIADSTESELFRAGQSFYVPGNSLFKIETDEVLDYVCHLEG | soluble
10 | MSSCSSLQSSSSRGASTDSLNTTSNGFSDGGSNLLPPKPNRIGCAATGAQSETDLRFVTSRDTHSSIPLNEPFGFGEKSPRAFMSENDLSAGAAGASTDFPEVTRTPSYLRISCALNGYTKSPNKSDLTPIAPHPPVSTMGESFVERRSRMFSQPQQRNPAPGFSSPLPPTTVSSQSASSEIEWSVEKF | not soluble
11 | MSSDKSIEKNTDTIASEVHEGDNHSNNLGSMEEEIKSTPSDQYEEIAIIPTEPLHSDKELNDKQQSLGHEAPTNVSREEPIGISGDEDTQITEQNVNEQRQETREPSSEIDLNEPLDVEKDVTTDVQAPNGLNIEKEYDAVKENEKVYADTKEVVSSPENREVTGKNSGGEKSSSSKFLDDESGTTTAANANDISISSEVTPERSSENDNNQIHITNEVAAGINLNENKEQKAAIEDGPVTAENLSSETARKVPPIPTQIINEKGDNSSENEVSAIPTTSSPPLPPRQNVATSTSPKLPPRGKQREQPPKTKNAVPPPLEEEMKSEKFRKNFEETKRNSYHHVPLTGSKTAQLESTAEINLIASRYRKTSHHLNKEGEETRESLQEGQSFLKSTFTSFLENLSEYNEVENVNEEDREMFKIDWSFWTQVVNDYATVASNEPENLEAHVTNGIPPQIRGIIWQLMANSKSREMEDIYETLLDTECLHEATIRRDLRRTKFVAEDKMESLYKVIKVYSVYDPDVGYTQGMGFIAAPLLINCENEAESFGLLVGLMKNYGLRELFLPGMPGLMLMLYQFDRLLEEHSPSLYNRLIREGISSTMYATQWFLTFFAYKFPLEFVLRIFDIVFVEGIEVLLKFAVNLMLKNEETLVKLRFDELLDFLKDELFNYYLMGNQDDASVVQMGLSNGNSFKGNDDGTFSYNVDLFVHDAMTGVYITPLTLRRYRGEYVEIHEKEQKKEDHYESLRIQNHQLQREAQKLEHDYSILNKENISAANELIQNRLNMEMLLDEKNDLINTITDIKSQIEEEIRKQNLPNPDASLPKADLREDLERTISRNNEVMRENGQLEERITELQAEIDELININKEQVSTASLLERDSKAKGRKGWTGFKKVFK | soluble
12 | MSSFTHFNDQGRAKMVDISDKKATVRTAIACSSIVVTKEIYDKISHNEIGKGDVLAVAQIAGIMAAKRTSDIIPMCHPLLLKGVDVSFDWKQSDEQYRLLIEVKVKTEGSTGVEMEALTAASATALTVYDMCKAVDKGMIIGETYLLEKTGGKSGDYTRKS | not soluble
13 | MSSGNILWGSQNPIVFKNSFGVSNADTGSQDDLSQQNPFAEGYGVLLILLMVIQAIANNKFIEVQKNAERARNTQEKSNEMDEVIAKAAKGDAKTKEEVPEDVIKYMRDNGILIDGMTIDDYMAKYGDHGKLDKGGLQAIKAALDNDANRNTDLMSQGQITIQKMSQELNAVLTQLTGLISKWGEISSMIAQKTYS | not soluble
14 | MSSKEQKTPEGQAPEEIIMDQHEEIEAVEPEASAEQVDPRDEKVANLEAQLAEAQTRERDGILRVKAEMENLRRRTELDIEKAHKFALEKFINELLPVIDSLDRALEVADKANPDMSAMVEDIELTLKSMLDVVRKFGVEVIAETNVPLDPNVHQAIAMVESDDVAPGNVLGIMQKGYTLNGRTIRAAMVTVAKAKA | soluble
15 | MSSKSIHEKRAIAKYAASLIEDGDCIFVDAGTTTYELIDYLEGKDILVVSNGLSHIDTLIQKNIKCYVIGGNIKISTKAITGCDALMCLSKFRFDKCFIGANGVHHTYGLTTPDTEEAILKECAINNSRKAYVLADDSKFGEISTIKFSDINKCVIITNEKPKDNTYDKKTDIKVVDILEHHHHHH | soluble
16 | MSSLCPYTGRPTGLFRDFEDMMPYWAQRHSMLNNFNNIVPQQLNEVENTAQKFCVKLDVAAFKPEELKVNLEGHVLTIEGHHEVKTEHGFSKRSFTRQFTLPKDVDLAHIHTVINKEGQMTIDAPKTGSNTTVRALPIHTSAGHAVTQKPSSTTTTGKH | not soluble
17 | MSSLHLDALHWSPDASTELLRGVHLEVPAGSFVGLIGPNGSGKTSLLRCAFRYARPQRGRVVLDGDDLWRQPPRWAARRIAVVLQEFPEDFGLAVEDVVAMGRTPHKGLFDGHGADDRQRVRQALLQVGLEGRAASPFASLSGGEKQRALLARALVQEPRLLILDEPTNHLDPRYQLELLRLLRSLGLSTLASFHDLNLAAAFCDRLYVLDGGRIVAQGTPTEVLDADLLWRVFGVRALVDRHPLADHPR | not soluble
18 | MSSNALYTDLSGYYDLMCSDINYQQQSASIHRLHQFLGNNGKQHLDLACGTGPHVRHFIDLGYQCSGLDINQPMLDMAMRRCPEAQFNLQDMTAFYLEQPVDLITCFLYSIHYSAGIERLKSCIASVHRALNDGGIFCFNSVDKHCIDNRLSIKHFAEFEGYHFAFESGWHYNGQGEKQSLNLSIAKRQQPFTQLTDFEADTSLHQTELWQDQHTMVATSFAELQALLAPYFEVHIFEHDYEKIVPWDLSSGNALFVCVKILEHHHHHH | not soluble
19 | MSSNECFKCGRSGHWARECPTGGGRGRGMRSRGRGGFTSDRGFQFVSSSLPDICYRCGESGHLAKDCDLQEDACYNCGRGGHIAKDCKEPKREREQCCYNCGKPGHLARDCDHADEQKCYSCGEFGHIQKDCTKVKCYRCGETGHVAINCSKTSEVNCYRCGESGHLARECTIEATA | soluble
20 | MSSNNAGESDGTGPALPTVWPGNAYPLGATYDGAGTNFSLFSEIAEKVELCLIDEDGVESRIPLDEVDGYVWHAYLPNITPGQRYGFRVHGPFDPAAGHRCDPSKLLLDPYGKSFHGDFTFGQALYSYDVNAVDPDSTPPMVDSLGHTMTSVVINPFFDWAYDRSPRTPYHETVIYEAHVKGMTQTHPSIPPELRGTYAGLAHPVIIDHLNELNVTAVELMPVHQFLHDSRLLDLGLRNYWGYNTFGFFAPHHQYASTRQAGSAVAEFKTMVRSLHEAGIEVILDVVYNHTAEGNHLGPTINFRGIDNTAYYRLMDHDLRFYKDFTGTGNSLNARHPHTLQLIMDSLRYWVIEMHVDGFRFDLASTLARELHDVDRLSAFFDLVQQDPVVSQVKLIAEPWDVGEGGYQVGNFPGLWTEWNGKYRDTVRDYWRGEPATLGEFASRLTGSSDLYEATGRRPSASINFVTAHDGFTLNDLVSYNDKHNEANGENNRDGESYNRSWNCGVEGPTDDPDILALRARQMRNMWATLMVSQGTPMIAHGDEIGRTQYGNNNVYCQDSELSWMDWSLVDKNADLLAFARKATTLRKNHKVFRRRRFFEGEPIRSGDEVRDIAWLTPSGREMTHEDWGRGFDRCVAVFLNGEAITAPDARGERVVDDSFLLCFNAHDHDVEFVMPHDGYAQQWTGELDTNDPVGDIDLTVTATDTFSVPARSLLVLRKTL | not soluble
21 | MSSQISEIEQEQLIEKLEIFKIHGRDKRGRKILRIIGKFFPARFLSLDVLKKYLEEKIFPRLGRKPFAVLYVHTGVQRSENFPGISALRAIYDAIPVNVRDNLQEVYFLHPGLQSRLFLATCGRFLFSGGLYGKLRYISRVDYLWEHVRRNEIEMPEFVYDHDDDLEYRPMMDYGQESDHARVFAGAAVDSSVSSFSMRCIS | soluble
22 | MSSRKKVRVLLLKNKTVPIDKYELECRSKAFEPIFVPLIKHTHVIQDFRNVLNTIPNYLNTINYIIITSQRTVESLNEAIIPTLTSEQKAALLSKTVYTVGPATANFIRRSGFINVKGGEDAGNGSILADIIIDDLSTDIKACPPSELLFLVGEIRRDIIPKKLHSKGIKVREVVTYKTEELSDGFKRFIHAMKECDEDEVFSDWVVVFSPQGTKEITQYLGDSNRLPGSHLRVASIGPTTKKYLDDNDVTSDVVSPKPDPKSLLDAIELYQRHK | soluble
